{"source": "patent US20240270846A1", "about": "(published 2024)", "binders": {"B1": {"name": "GLS3000 V94A one-arm antibody (antibody, human IgG1, kappa, L234A L235A, N297A, name in Kabat numbering)", "light": "DIVMTQSPLSLPVTPGEPASISCRSSQSLVHSNRNTYLHWYQQKPGQAPRLLIYKVSNRFSGVPDRFSGSGSGTDFTLKISRVEAEDVGVYYCGQGTQAPYTFGQGTKLEIKRTVAAPSVFIFPPSDEQLKSGTASVVCLLNNFYPREAKVQWKVDNALQSGNSQESVTEQDSKDSTYSLSSTLTLSKADYEKHKVYACEVTHQGLSSPVTKSFNRGEC", "heavy": "QVQLVESGGGVVQPGRSLRLSCAASGFTFSNAWMHWVRQAPGKGLEWVAQIKAKSNNYATYYAESVKGRFTISRDDSKNSLYLQMNSLKTEDTAVYYCRYVHYGAYYGVDAWGQGTTVTVSSASTKGPSVFPLAPSSKSTSGGTAALGCLVKDYFPEPVTVSWNSGALTSGVHTFPAVLQSSGLYSLSSVVTVPSSSLGTQTYICNVNHKPSNTKVDKKVEPKSCDKTHTCPPCPAPEAAGGPSVFLFPPKPKDTLMISRTPEVTCVVVDVSHEDPEVKFNWYVDGVEVHNAKTKPREEQYASTYRVVSVLTVLHQDWLNGKEYKCKVSNKALPAPIEKTISKAKGQPREPQVYTLPPSRCELTKNQVSLSCAVKGFYPSDIAVEWESNGQPENNYKTTPPVLDSDGSFFLVSKLTVDKSRWQQGNVFSCSVMHEALHNHYTQKSLSLSPDYKDDDDK", "chain": "EPKSSDKTHTCPPCPAPELLGGPSVFLFPPKPKDTLMISRTPEVTCVVVDVSHEDPEVKFNWYVDGVEVHNAKTKPREEQYNSTYRVVSVLTVLHQDWLNGKEYKCKVSNKALPAPIEKTISKAKGQPREPQVCTLPPSRDELTKNQVSLWCLVKGFYPSDIAVEWESNGQPENNYKTTPPVLDSDGSFFLYSKLTVDKSRWQQGNVFSCSVMHEALHNRYTQKSLSLSP"}, "B2": {"name": "GLS3000 F55I one-arm antibody (antibody, human IgG1, kappa, L234A L235A, N297A, name in Kabat numbering)", "light": "B1 light with F60I, A99V", "heavy": "B1 heavy", "chain": "B1 chain"}, "B3": {"name": "GLS3000 G89I one-arm antibody (antibody, human IgG1, kappa, L234A L235A, N297A, name in Kabat numbering)", "light": "B1 light with G94I, A99V", "heavy": "B1 heavy", "chain": "B1 chain"}, "B4": {"name": "GLS3000 F55N one-arm antibody (antibody, human IgG1, kappa, L234A L235A, N297A, name in Kabat numbering)", "light": "B1 light with F60N, A99V", "heavy": "B1 heavy", "chain": "B1 chain"}, "B5": {"name": "GLS3000 G89N one-arm antibody (antibody, human IgG1, kappa, L234A L235A, N297A, name in Kabat numbering)", "light": "B1 light with G94N, A99V", "heavy": "B1 heavy", "chain": "B1 chain"}, "B6": {"name": "GLS3000 F55T one-arm antibody (antibody, human IgG1, kappa, L234A L235A, N297A, name in Kabat numbering)", "light": "B1 light with F60T, A99V", "heavy": "B1 heavy", "chain": "B1 chain"}, "B7": {"name": "GLS3000 G89M one-arm antibody (antibody, human IgG1, kappa, L234A L235A, N297A, name in Kabat numbering)", "light": "B1 light with G94M, A99V", "heavy": "B1 heavy", "chain": "B1 chain"}, "B8": {"name": "GLS3000 G89H one-arm antibody (antibody, human IgG1, kappa, L234A L235A, N297A, name in Kabat numbering)", "light": "B1 light with G94H, A99V", "heavy": "B1 heavy", "chain": "B1 chain"}, "B9": {"name": "GLS3000 G89L one-arm antibody (antibody, human IgG1, kappa, L234A L235A, N297A, name in Kabat numbering)", "light": "B1 light with G94L, A99V", "heavy": "B1 heavy", "chain": "B1 chain"}, "B10": {"name": "GLS3000 F55P one-arm antibody (antibody, human IgG1, kappa, L234A L235A, N297A, name in Kabat numbering)", "light": "B1 light with F60P, A99V", "heavy": "B1 heavy", "chain": "B1 chain"}, "B11": {"name": "GLS3000 G89F one-arm antibody (antibody, human IgG1, kappa, L234A L235A, N297A, name in Kabat numbering)", "light": "B1 light with G94F, A99V", "heavy": "B1 heavy", "chain": "B1 chain"}, "B12": {"name": "GLS3000 G89T one-arm antibody (antibody, human IgG1, kappa, L234A L235A, N297A, name in Kabat numbering)", "light": "B1 light with G94T, A99V", "heavy": "B1 heavy", "chain": "B1 chain"}, "B13": {"name": "GLS3000 G89Q one-arm antibody (antibody, human IgG1, kappa, L234A L235A, N297A, name in Kabat numbering)", "light": "B1 light with G94Q, A99V", "heavy": "B1 heavy", "chain": "B1 chain"}, "B14": {"name": "GLS3000 G89A one-arm antibody (antibody, human IgG1, kappa, L234A L235A, N297A, name in Kabat numbering)", "light": "B1 light with G94A, A99V", "heavy": "B1 heavy", "chain": "B1 chain"}, "B15": {"name": "GLS3000 F55R one-arm antibody (antibody, human IgG1, kappa, L234A L235A, N297A, name in Kabat numbering)", "light": "B1 light with F60R, A99V", "heavy": "B1 heavy", "chain": "B1 chain"}, "B16": {"name": "GLS3000 F55S one-arm antibody (antibody, human IgG1, kappa, L234A L235A, N297A, name in Kabat numbering)", "light": "B1 light with F60S, A99V", "heavy": "B1 heavy", "chain": "B1 chain"}, "B17": {"name": "GLS3000 F55Q one-arm antibody (antibody, human IgG1, kappa, L234A L235A, N297A, name in Kabat numbering)", "light": "B1 light with F60Q, A99V", "heavy": "B1 heavy", "chain": "B1 chain"}, "B18": {"name": "GLS3000 G89R one-arm antibody (antibody, human IgG1, kappa, L234A L235A, N297A, name in Kabat numbering)", "light": "B1 light with G94R, A99V", "heavy": "B1 heavy", "chain": "B1 chain"}, "B19": {"name": "GLS3000 G89E one-arm antibody (antibody, human IgG1, kappa, L234A L235A, N297A, name in Kabat numbering)", "light": "B1 light with G94E, A99V", "heavy": "B1 heavy", "chain": "B1 chain"}, "B20": {"name": "GLS3000 G89K one-arm antibody (antibody, human IgG1, kappa, L234A L235A, N297A, name in Kabat numbering)", "light": "B1 light with G94K, A99V", "heavy": "B1 heavy", "chain": "B1 chain"}, "B21": {"name": "GLS3000 G89P one-arm antibody (antibody, human IgG1, kappa, L234A L235A, N297A, name in Kabat numbering)", "light": "B1 light with G94P, A99V", "heavy": "B1 heavy", "chain": "B1 chain"}, "B22": {"name": "GLS3000 F55L one-arm antibody (antibody, human IgG1, kappa, L234A L235A, N297A, name in Kabat numbering)", "light": "B1 light with F60L, A99V", "heavy": "B1 heavy", "chain": "B1 chain"}, "B23": {"name": "GLS3000 G89D one-arm antibody (antibody, human IgG1, kappa, L234A L235A, N297A, name in Kabat numbering)", "light": "B1 light with G94D, A99V", "heavy": "B1 heavy", "chain": "B1 chain"}, "B24": {"name": "GLS3000 F55G one-arm antibody (antibody, human IgG1, kappa, L234A L235A, N297A, name in Kabat numbering)", "light": "B1 light with F60G, A99V", "heavy": "B1 heavy", "chain": "B1 chain"}, "B25": {"name": "GLS3000 G89V one-arm antibody (antibody, human IgG1, kappa, L234A L235A, N297A, name in Kabat numbering)", "light": "B1 light with G94V, A99V", "heavy": "B1 heavy", "chain": "B1 chain"}, "B26": {"name": "GLS3000 F55K one-arm antibody (antibody, human IgG1, kappa, L234A L235A, N297A, name in Kabat numbering)", "light": "B1 light with F60K, A99V", "heavy": "B1 heavy", "chain": "B1 chain"}, "B27": {"name": "GLS3000 F55V one-arm antibody (antibody, human IgG1, kappa, L234A L235A, N297A, name in Kabat numbering)", "light": "B1 light with F60V, A99V", "heavy": "B1 heavy", "chain": "B1 chain"}, "B28": {"name": "GLS3000 F55M one-arm antibody (antibody, human IgG1, kappa, L234A L235A, N297A, name in Kabat numbering)", "light": "B1 light with F60M, A99V", "heavy": "B1 heavy", "chain": "B1 chain"}, "B29": {"name": "GLS3000 F55Y one-arm antibody (antibody, human IgG1, kappa, L234A L235A, N297A, name in Kabat numbering)", "light": "B1 light with F60Y, A99V", "heavy": "B1 heavy", "chain": "B1 chain"}, "B30": {"name": "GLS3000 F55E one-arm antibody (antibody, human IgG1, kappa, L234A L235A, N297A, name in Kabat numbering)", "light": "B1 light with F60E, A99V", "heavy": "B1 heavy", "chain": "B1 chain"}, "B31": {"name": "GLS3000 F55H one-arm antibody (antibody, human IgG1, kappa, L234A L235A, N297A, name in Kabat numbering)", "light": "B1 light with F60H, A99V", "heavy": "B1 heavy", "chain": "B1 chain"}, "B32": {"name": "GLS3000 F55W one-arm antibody (antibody, human IgG1, kappa, L234A L235A, N297A, name in Kabat numbering)", "light": "B1 light with F60W, A99V", "heavy": "B1 heavy", "chain": "B1 chain"}}, "note": "Where a chain is given by its changes, count along the chain named. In names and notes the source's numbering stands."}
{"biological_target": "T1, CD3 epsilon homodimer protein (UniProt P07766 23-126)", "T1 construct": "Construct of the homodimer is not described; also called CD3 (CD3 epsilon)", "T1 sequence (P07766 23-126)": "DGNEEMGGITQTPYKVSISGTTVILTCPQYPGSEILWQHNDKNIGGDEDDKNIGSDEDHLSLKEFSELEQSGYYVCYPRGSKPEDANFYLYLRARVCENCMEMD", "test": "SPR Biacore T200, CD3e homodimer on chip, antibody analyte;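 also: CD3 epsilon homodimer amine-coupled on CM4 sensor chip, antibodies injected as analyte at 25 °C in HBS-EP+, ratio ≥0.8 taken as binding retained versus unaltered parent antibody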"}
{"binder": "B1", "ratio of amounts bound (altered form/GLS3000)": 1.05}
{"binder": "B2", "ratio of amounts bound (altered form/GLS3000)": 0.82}
{"binder": "B3", "ratio of amounts bound (altered form/GLS3000)": 1.07}
{"binder": "B4", "ratio of amounts bound (altered form/GLS3000)": 0.98}
{"binder": "B5", "ratio of amounts bound (altered form/GLS3000)": 0.8}
{"binder": "B6", "ratio of amounts bound (altered form/GLS3000)": 0.41}
{"binder": "B7", "ratio of amounts bound (altered form/GLS3000)": 0.52}
{"binder": "B8", "ratio of amounts bound (altered form/GLS3000)": 0.7}
{"binder": "B9", "ratio of amounts bound (altered form/GLS3000)": 0.94}
{"binder": "B10", "ratio of amounts bound (altered form/GLS3000)": 1.16}
{"binder": "B11", "ratio of amounts bound (altered form/GLS3000)": 1.09}
{"binder": "B12", "ratio of amounts bound (altered form/GLS3000)": 1.03}
{"binder": "B13", "ratio of amounts bound (altered form/GLS3000)": 0.38}
{"binder": "B14", "ratio of amounts bound (altered form/GLS3000)": 1.13}
{"binder": "B15", "ratio of amounts bound (altered form/GLS3000)": 1.31}
{"binder": "B16", "ratio of amounts bound (altered form/GLS3000)": 0.69}
{"binder": "B17", "ratio of amounts bound (altered form/GLS3000)": 0.91}
{"binder": "B18", "ratio of amounts bound (altered form/GLS3000)": 0.19}
{"binder": "B19", "ratio of amounts bound (altered form/GLS3000)": 0.26}
{"binder": "B20", "ratio of amounts bound (altered form/GLS3000)": 0.4}
{"binder": "B21", "ratio of amounts bound (altered form/GLS3000)": 0.35}
{"binder": "B22", "ratio of amounts bound (altered form/GLS3000)": 0.76}
{"binder": "B23", "ratio of amounts bound (altered form/GLS3000)": 0.33}
{"binder": "B24", "ratio of amounts bound (altered form/GLS3000)": 1.31}
{"binder": "B25", "ratio of amounts bound (altered form/GLS3000)": 1.63}
{"binder": "B26", "ratio of amounts bound (altered form/GLS3000)": 1.33}
{"binder": "B27", "ratio of amounts bound (altered form/GLS3000)": 0.71}
{"binder": "B28", "ratio of amounts bound (altered form/GLS3000)": 0.8}
{"binder": "B29", "ratio of amounts bound (altered form/GLS3000)": 0.92}
{"binder": "B30", "ratio of amounts bound (altered form/GLS3000)": 0.72}
{"binder": "B31", "ratio of amounts bound (altered form/GLS3000)": 0.94}
{"binder": "B32", "ratio of amounts bound (altered form/GLS3000)": 0.69}
